Substrate in this data set: N[C@@H](Cc1ccc(O)cc1)C(=O)O
Description: Promoting effect on amino acid efflux from human LAT2 stably expressing cell line. Particulars: other: Km for amino acid efflux, Table 7; 37.0 °C. Format: cell-based. The method, then: In the same manner as in Example 3, the human LAT1 stably expressing cell line and the human LAT2 stably expressing cell line were seeded on separate collagen-coated 24-well plates, and after 48 hours, the cells were washed with an uptake buffer prewarmed at 37° C. An uptake buffer supplemented with 1 μM of [^14C]L-leucine or [^14C]L-alanine was added to each well, and [^14C]L-leucine or [^14C]L-alanine uptake by the cells was allowed to proceed at 37° C. for 10 minutes. The cells were washed with an uptake buffer prewarmed at 37° C., treated with the compound of Example 1 or the positive control FAMT at 1, 2, 3, 5, 10, 20, 50, 100 or 200 μM, and incubated at 37° C. for 1 minute, and the supernatants were collected. The radioactivity in each supernatant was measured as the radioactivity of the amino acid released from the cells. Subsequently, 500 μL of 0.1 M NaOH was added to each well for cell lysis, 20 μL of the lysate was used for the measurement of the protein concentration, and the remaining lysate was used for the measurement of the residual radioactivity in the cells. The sum of the residual radioactivity and the released radioactivity in each experiment was checked to confirm that there was no great difference in the total radioactivity incorporated into the cells at the preloading among the experiments. […]

B1: human LAT2 (Homo sapiens) (protein)
chain: MEEGARHRNNTEKKHPGGGESDASPEAGSGGGGVALKKEIGLVSACGIIVGNIIGSGIFVSPKGVLENAGSVGLALIVWIVTGFITVVGALCYAELGVTIPKSGGDYSYVKDIFGGLAGFLRLWIAVLVIYPTNQAVIALTFSNYVLQPLFPTCFPPESGLRLLAAICLLLLTWVNCSSVRWATRVQDIFTAGKLLALALIIIMGIVQICKGEYFWLEPKNAFENFQEPDIGLVALAFLQGSFAYGGWNFLNYVTEELVDPYKNLPRAIFISIPLVTFVYVFANVAYVTAMSPQELLASNAVAVTFGEKLLGVMAWIMPISVALSTFGGVNGSLFTSSRLFFAGAREGHLPSVLAMIHVKRCTPIPALLFTCISTLLMLVTSDMYTLINYVGFINYLFYGVTVAGQIVLRWKKPDIPRPIKINLLFPIIYLLFWAFLLVFSLWSEPVVCGIGLAIMLTGVPVYFLGVYWQHKPKCFSDFIELLTLVSQKMCVVVYPEVERGSGTEEANEDMEEQQQPMYQPTPTKDKDVAGQPQP
notes: expressed in transfected cells
For the protein B1, the Michaelis constant (Km) was determined as 32.7 µM.

By Km is commonly meant the concentration of substrate that gives half-maximal velocity.

Source of the values: patent US9839701B2, “Aromatic amino acid derivative and positron emission topography (PET) probe using the same” (OSAKA UNIVERSITY, priority 2013, dated 2017).
